Measured values reported in paper PMC11751504.

How the values were obtained:
[1] = target: SidF C-trim (residues 1-443) (Aspergillus fumigatus) (UniProt Q4WF55); assay: SAXS
[2] = target: SidF C-trim (residues 1-443) (Aspergillus fumigatus) (UniProt Q4WF55); assay: SEC

SidF C-trim (residues 1-443) (from UniProt Q4WF55 1-443) (domain or fragment)
stoichiometry N [1]: 2 | stoichiometry N [2]: 4
